Results taken from patent US20250101098A1 (R P SCHERER TECHNOLOGIES, published 2025).

T1: recombinant human Nectin-4-His protein (human, UniProt Q96NY8 32-349)
T1 construct: Rescreening antigen and bought ELISA antigen are treated as one molecule; also called human Nectin-4-His tagged; Ag1; not shown: His tag
T1 sequence: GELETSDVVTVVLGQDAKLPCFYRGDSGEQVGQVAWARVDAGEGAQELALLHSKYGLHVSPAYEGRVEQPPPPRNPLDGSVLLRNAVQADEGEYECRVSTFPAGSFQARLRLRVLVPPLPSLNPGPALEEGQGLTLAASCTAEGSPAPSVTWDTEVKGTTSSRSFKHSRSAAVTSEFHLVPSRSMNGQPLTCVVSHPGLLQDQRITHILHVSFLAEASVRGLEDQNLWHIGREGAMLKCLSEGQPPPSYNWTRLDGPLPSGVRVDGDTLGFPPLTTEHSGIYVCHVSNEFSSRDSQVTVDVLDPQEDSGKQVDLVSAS

T2: cynomolgus Nectin-4 His tagged (cynomolgus, UniProt A0A2K5WES1 32-349)
T2 construct: also called Ag2
T2 sequence: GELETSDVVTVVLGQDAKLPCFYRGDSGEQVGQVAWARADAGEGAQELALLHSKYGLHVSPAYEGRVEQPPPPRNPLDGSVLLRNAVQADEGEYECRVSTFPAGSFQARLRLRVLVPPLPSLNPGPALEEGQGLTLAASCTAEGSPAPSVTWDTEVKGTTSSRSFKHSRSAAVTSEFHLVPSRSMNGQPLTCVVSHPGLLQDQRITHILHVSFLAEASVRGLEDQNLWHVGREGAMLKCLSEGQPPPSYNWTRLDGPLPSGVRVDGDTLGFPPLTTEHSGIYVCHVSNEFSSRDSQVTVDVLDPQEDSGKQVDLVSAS

T3: human nectin-4 protein expressed on the surface of cells (human, UniProt Q96NY8 32-510)
T3 sequence: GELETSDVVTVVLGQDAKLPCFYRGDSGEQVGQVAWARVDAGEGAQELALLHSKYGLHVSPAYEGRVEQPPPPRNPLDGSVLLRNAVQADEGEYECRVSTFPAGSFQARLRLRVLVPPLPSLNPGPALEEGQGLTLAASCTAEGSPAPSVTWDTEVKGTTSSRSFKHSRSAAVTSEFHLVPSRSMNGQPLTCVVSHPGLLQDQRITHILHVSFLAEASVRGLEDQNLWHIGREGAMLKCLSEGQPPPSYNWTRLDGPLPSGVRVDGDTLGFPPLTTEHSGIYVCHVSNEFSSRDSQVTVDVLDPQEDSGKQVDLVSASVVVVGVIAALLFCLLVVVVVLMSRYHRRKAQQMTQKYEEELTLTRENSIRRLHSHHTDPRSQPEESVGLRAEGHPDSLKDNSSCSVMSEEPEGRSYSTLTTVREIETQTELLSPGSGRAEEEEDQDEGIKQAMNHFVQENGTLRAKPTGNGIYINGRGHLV

T4: cynomolgus monkey nectin-4 protein expressed on the surface of HEK 293 cells (cynomolgus monkey, UniProt A0A2K5WES1 32-510)
T4 construct: whole, on cells
T4 sequence: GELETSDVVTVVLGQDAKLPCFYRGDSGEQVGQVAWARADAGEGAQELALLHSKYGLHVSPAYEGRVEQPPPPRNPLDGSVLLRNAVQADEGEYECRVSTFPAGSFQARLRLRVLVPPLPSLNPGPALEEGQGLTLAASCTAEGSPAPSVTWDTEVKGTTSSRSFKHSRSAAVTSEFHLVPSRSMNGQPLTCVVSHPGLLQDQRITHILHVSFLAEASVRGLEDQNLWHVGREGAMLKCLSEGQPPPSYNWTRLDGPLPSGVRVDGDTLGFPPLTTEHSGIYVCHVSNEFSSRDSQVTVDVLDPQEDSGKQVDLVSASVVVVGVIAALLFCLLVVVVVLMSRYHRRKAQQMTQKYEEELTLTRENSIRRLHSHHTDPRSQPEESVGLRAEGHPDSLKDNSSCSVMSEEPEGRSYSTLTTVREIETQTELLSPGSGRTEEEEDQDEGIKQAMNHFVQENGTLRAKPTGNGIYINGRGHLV


Key:
[1] = biological target: T1, recombinant human Nectin-4-His protein; experiment: ELISA, hybridoma supernatant
[2] = biological target: T2, cynomolgus Nectin-4 His tagged; experiment: ELISA, hybridoma supernatant
[3] = biological target: T1, recombinant human Nectin-4-His protein; experiment: ELISA, recombinant antibody on coated antigen
[4] = biological target: T3, human nectin-4 protein expressed on the …; experiment: cell-based or functional assay
[5] = biological target: T4, cynomolgus monkey nectin-4 protein …; experiment: flow cytometry, HEK 293 cells overexpressing the target
Description: (§1) Human embryonic kidney (HEK) 293 cells overexpressing human, cynomolgus monkey, rat, or mouse nectin-4 protein were produced. Cells were lifted with Versene to preserve cell surface proteins and were resuspended at 10e6/mL in PBS+2% FBS. 100 μl was added to a flow tube to test […]. Primary antibodies were diluted to […] and 10 μL was added for a total of 1 μg/test. Primary antibodies (or ADCs) were incubated with cells for 1 h on ice. Then, cells were washed 1× in 2 mL PBS+2% FBS and secondary antibody was added for detection. AF488-conjugated anti-human antibody from Jackson Immunoresearch, diluted according to the manufacturer's instructions+50% glycerol, was used at 1 μL/test-diluted to ⅕ the concentration in PBS+2% FBS and 5 μL were added per tube. The secondary reagent was incubated with the cells for 30 min, then cells were washed 2× in PBS+2% FBS and analyzed by flow cytometry on a BD FacsCanto instrument equipped with FACSDiva software.
(§2) Lead clones were tested for binding to human, cynomolgus monkey, rat, or mouse nectin-4 protein expressed on the surface of HEK 293 cells. Enfortumab was included as a positive control and an anti-FITC reactive antibody was included as a negative control.

[6] = biological target: T3, human nectin-4 protein expressed on the …; experiment: as above
Description: as §1, §2

[7] = biological target: T3, human nectin-4 protein expressed on the …; experiment: cell-based or functional assay; remark: listed apart in the source
[8] = biological target: T1, recombinant human Nectin-4-His protein; experiment: ELISA, coated antigen

Binder | ELISA signal [1] | ELISA signal [2] | Cell kill IC50, HekNectin4 [7] [nM] | Cell kill IC50, MDA-MB468 [7] [nM] | Cell kill IC50, SKBR3 [7] [nM] | EC50 [8] [nM] | further results
Nectin-4 Hybridoma 6C8H/6C8L (hybridoma supernatant) (antibody, V domains shown, Mouse antibody in hybridoma supernatant) VH: QVQLKQSGPGLVQPSQSLSITCTVSGFSLSTYGVHWVRQSPGKGLEWLGVIWSGGSTDYNAAFISRLTISKDNSKSQIFFKMNSLQADDTAIYYCARMMSWYFDVWGTGTTVTVSS VL: DIVMTQSQKFMSTSVGDRVSVTCKASQNVVTNVAWYQQKPGQSPKALIYSASYRYSGVPDRFTGSGSGTDFTLTISNVQSEDLAEYFCQQYNSYPLTFGAGTKLELK | 3.16 | 3.4 |  |  |  |  | 
Nectin-4 7 E8H/7 E8L (hybridoma supernatant) (antibody, V domains shown, Mouse antibody in hybridoma supernatant) VH: QVQLKQSGPGLVQPSQSLSITCTVSGFSLATYGVHWVRQSPGKGLEWLGVIWSGGSTDYNAAFISRLSISKDNSKSQVFFKMNSLQADDTAIYYCARNSHWYFDVWGTGTTVTVSS VL: DIVMTQSQKFMSTSVGDRVSVTCKASQNVVTNVAWYQQKPGQSPKALIYSASYRYSGVPDRFTGSGSGTDFTLTISHVQSEDLAEYFCHQYNNYPYTFGGGTKLEIK | 3.11 | 3.44 |  |  |  |  | 
Nectin-4 5D9H/5D9L (hybridoma supernatant) (antibody, V domains shown, Mouse antibody in hybridoma supernatant) VH: QVQLKQSGPGLVQPSQSLSITCTVSGFSLTNYGVHWVRQSPGKGLEWLGVIWSGGSTDYNAAFVSRLSISRDNSKSQVFFKMNSLQADDTAIYYCARSGKWYYFDYWGQGTTLTVSS VL: DIQMTQSPASLSVSVGETVTITCRASENIYSNLAWYQQKQGKSPQLLVYAATNLADGVPSRFSGSGSGTQYSLKINSLQSEDFGSYYCQHFWGTPTFGGGTKLEIK | 3.08 | 3.32 |  |  |  |  | 
Nectin-4 7H10H/7H10L (recombinant chimeric antibody) (antibody, V domains shown) VH: QVQLQQPGAELVKPGASVKLSCKASGYTFTTYWMHWVKQRPGRGLEWIGGIDPYGAHIKYNEMFKTKATLTVDKPSSTAYMQLSSLTSEDSAVYYCARGDYSNWWWTYWGQGTLVTVSA VL: DIVMTQSQKFMSTTVGDRVSITCKASQNVGTAVAWYQQIPGQSPKLLIYSASNRYTGVPDRFTGSGSGTDFTLTITNMQSEDLADYFCQHYSSYPWTFGGGTKLEIK |  |  |  |  |  |  | EC50 [3]: 0.21 nM; IC50, in vitro potency, HEK Cells + Nectin-4 [4]: 0.549 nM; Flow data [5]: 14100; Flow data [6]: 12300
Nectin-4 7H10H/7H10L (hybridoma supernatant) (antibody, V domains shown, Mouse antibody in hybridoma supernatant) VH: QVQLQQPGAELVKPGASVKLSCKASGYTFTTYWMHWVKQRPGRGLEWIGGIDPYGAHIKYNEMFKTKATLTVDKPSSTAYMQLSSLTSEDSAVYYCARGDYSNWWWTYWGQGTLVTVSA VL: DIVMTQSQKFMSTTVGDRVSITCKASQNVGTAVAWYQQIPGQSPKLLIYSASNRYTGVPDRFTGSGSGTDFTLTITNMQSEDLADYFCQHYSSYPWTFGGGTKLEIK | 3.26 | 3.49 |  |  |  |  | 
Nectin-4 12E11H/12E11L (hybridoma supernatant) (antibody, V domains shown, Mouse antibody in hybridoma supernatant) VH: QVQLKQSGPGLVQPSQSLSITCTVSGFSLTTYGVHWVRQSPGKGLEWLGVIWSGGSTDCNGAFISRLSIIKDNSKSQVFFKMNSLQADDTAIYYCARMTHWYFDVWGTGTTVTVSS VL: DIVMTQSQKFMSTTVGDRVSITCKASQNVNTAVAWYQQKPGQSPKLLIYSASYRYTGVPDRFTGSGSGTDFTLTISNMQSEDLADYFCQQYSNYPLTFGAGTKLELK | 3.21 | 3.44 |  |  |  |  | 
Nectin-4 3C12H/3C12L (hybridoma supernatant) (antibody, V domains shown, Mouse antibody in hybridoma supernatant) VH: QVQLKQSGPGLVQPSQSLSITCTVSGFSLTTYGVHWVRQSPGKGLEWLGVIWSGGNTDYNAAFISRLSISKDNSKSQVFFKMNSLQADDTAIYYCARMTHWYFDVWGTGTTVTVSS VL: DIVMTQSQKFMSTTVGDRVSITCKASQNVVTAVAWYQQKPGQSPKLLIYSASNRYTGVPDRFTGSGSGTDFTLTISYMQSEDLADYFCQQYSSYPLTFGAGTKLELK | 3.2 | 3.45 |  |  |  |  | 
Nectin-4 5D9 VH4/VL2 (antibody, V domains shown, Humanized; also called 5D9 VH variant 4 / 5D9 VL variant 2) VH: QVQLQQSGPGLVKPSETLSLTCTVSGFSLTNYGVHWVRQPPGKGLEWLGVIWSGGSTDYNPSLKSRLTISRDTSKNQVSFKMSSVTAADTAVYYCARSGKWYYFDYWGQGTLVTVSS VL: DIQMTQSPSSLSASVGDTVTITCRASQNIYSNLAWYQQKQGKAPKLLVYAATNLADGVPSRFSGSGSGTDFTLKINSLQPEDFATYYCQHFWGTPTFGGGTKVEIK |  |  | 0.29 | 3.13 | 4.95 | 0.236 | 
Nectin-4 5D9 VH5/VL1 (antibody, V domains shown, Humanized; also called 5D9 VH variant 5 / 5D9 VL variant 1) VH: QVQLQESGPGLVKPSETLSLTCTVSGGSLTNYGVHWVRQPPGKGLEWIGVIWSGGSTNYNPSLKSRVTISRDTSKNQVSLKLSSVTAADTAVYYCARSGKWYYFDYWGQGTLVTVSS VL: DIQMTQSPASLSASVGDTVTITCRASQNIYSNLAWYQQKQGKSPQLLVYAATNLADGVPSRFSGSGSGTQYTLKINSLQSEDFGTYYCQHFWGTPTFGGGTKVEIK |  |  | 30.3 | 19 | 13.3 | 33.4 | 
Nectin-4 5D9 VH4/VL4 (antibody, V domains shown, Humanized; also called 5D9 VH variant 4 / 5D9 VL variant 4) VH: QVQLQQSGPGLVKPSETLSLTCTVSGFSLTNYGVHWVRQPPGKGLEWLGVIWSGGSTDYNPSLKSRLTISRDTSKNQVSFKMSSVTAADTAVYYCARSGKWYYFDYWGQGTLVTVSS VL: DIQMTQSPSSLSASVGDRVTITCRASENIYSNLAWYQQKPGKAPKLLVYAATNLADGVPSRFSGSGSGTDYTLTISSLQPEDFATYYCQHFWGTPTFGGGTKVEIK |  |  | 0.102 | 3.37 | 9.45 | 0.232 | 
